Data from paper PMC12756002, “Mutations in Hsp40 co-chaperone change the canonical interdomain interactions stimulating LGMDD1 myopathy” (The Journal of Biological Chemistry, 2025).

Legend:
Ssa1-WT = target: T1, Ssa1-WT (yeast, UniProt P10591 1-642); experiment: ELISA; Ssa1 (200 nM) immobilised in microtiter wells; dilutions of Sis1-WT or mutants (0-50 nM); bound Sis1 detected with an anti-Sis1 antibody; no client; details: both partners purified
T1 construct: Ssa1, yeast Hsp70; Cloned into pPROEx-Htb; cleavage of the tag follows from 'the remaining purification steps were analogous to those for Sis1-WT'; also called Hsp70; source: E. coli Rosetta 2(DE3), purified (Talon resin, steps analogous to Sis1)
T1 sequence (P10591 whole entry): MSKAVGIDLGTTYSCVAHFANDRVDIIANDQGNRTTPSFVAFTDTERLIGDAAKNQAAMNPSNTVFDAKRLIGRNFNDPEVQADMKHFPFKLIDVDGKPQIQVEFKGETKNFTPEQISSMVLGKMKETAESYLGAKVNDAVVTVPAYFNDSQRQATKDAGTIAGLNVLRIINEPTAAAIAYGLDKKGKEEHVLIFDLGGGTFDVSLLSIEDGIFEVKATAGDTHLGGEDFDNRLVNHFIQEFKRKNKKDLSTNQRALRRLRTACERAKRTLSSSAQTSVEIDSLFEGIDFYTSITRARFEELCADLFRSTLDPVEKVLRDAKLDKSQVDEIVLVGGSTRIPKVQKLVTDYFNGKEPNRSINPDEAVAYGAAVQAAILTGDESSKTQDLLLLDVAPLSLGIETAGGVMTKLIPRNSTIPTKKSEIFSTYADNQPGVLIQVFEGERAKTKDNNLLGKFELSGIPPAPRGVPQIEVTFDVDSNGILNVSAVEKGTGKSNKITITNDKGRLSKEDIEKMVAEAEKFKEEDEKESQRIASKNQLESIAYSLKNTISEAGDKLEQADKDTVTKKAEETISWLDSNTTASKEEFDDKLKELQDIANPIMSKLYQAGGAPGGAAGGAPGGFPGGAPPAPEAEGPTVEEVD

full-length Rnq1 = target: T2, full-length Rnq1 (yeast, UniProt P25367 1-405); experiment: ELISA; denatured substrate (FL Rnq1 or ΔN Rnq1 400 ng, luciferase 100 ng) immobilised in microtiter wells; dilutions of Sis1-WT or mutants (0-20 or 0-25 nM) in PBS-T with 0.5% BSA, overnight at room temperature; retained Sis1 detected with an anti-Sis1 antibody; details: both partners purified
T2 construct: also called FL Rnq1; Rnq1-WT
T2 sequence (looked up): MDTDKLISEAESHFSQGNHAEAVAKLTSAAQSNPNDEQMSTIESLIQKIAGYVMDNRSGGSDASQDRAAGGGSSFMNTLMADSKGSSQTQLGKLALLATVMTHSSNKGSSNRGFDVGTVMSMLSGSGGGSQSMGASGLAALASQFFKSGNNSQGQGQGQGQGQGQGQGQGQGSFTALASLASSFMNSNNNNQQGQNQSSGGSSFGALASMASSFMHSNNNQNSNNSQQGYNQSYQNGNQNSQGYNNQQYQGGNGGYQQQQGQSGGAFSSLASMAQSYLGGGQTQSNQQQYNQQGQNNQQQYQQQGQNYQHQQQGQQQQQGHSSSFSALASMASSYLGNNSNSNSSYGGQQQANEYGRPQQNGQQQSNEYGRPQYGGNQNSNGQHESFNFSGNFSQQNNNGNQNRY

B1: Sis1-WT (natural protein, yeast, UniProt P25294 1-352, looked up)
chain: MVKETKLYDLLGVSPSANEQELKKGYRKAALKYHPDKPTGDTEKFKEISEAFEILNDPQKREIYDQYGLEAARSGGPSFGPGGPGGAGGAGGFPGGAGGFSGGHAFSNEDAFNIFSQFFGGSSPFGGADDSGFSFSSYPSGGGAGMGGMPGGMGGMHGGMGGMPGGFRSASSSPTYPEEETVQVNLPVSLEDLFVGKKKSFKIGRKGPHGASEKTQIDIQLKPGWKAGTKITYKNQGDYNPQTGRRKTLQFVIQEKSHPNFKRDGDDLIYTLPLSFKESLLGFSKTIQTIDGRTLPLSRVQPVQPSQTSTYPGQGMPTPKNPSQRGNLIVKYKVDYPISLNDAQKRAIDENF
notes: Sis1, essential yeast DNAJ (Hsp40) protein, homolog of human DNAJB6; Cloned into pPROEx-Htb (hexa-His-tag, TEV site); also called Hsp40; wild-type Sis1; source: E. coli Lemo21(DE3), purified (Talon cobalt resin, TEV cleavage, second Talon pass)
binding result (Ssa1-WT): binds | binding result (full-length Rnq1): binds

B2: Sis1-E53A (natural protein, yeast, UniProt P25294 1-352, looked up)
chain: MVKETKLYDLLGVSPSANEQELKKGYRKAALKYHPDKPTGDTEKFKEISEAFAILNDPQKREIYDQYGLEAARSGGPSFGPGGPGGAGGAGGFPGGAGGFSGGHAFSNEDAFNIFSQFFGGSSPFGGADDSGFSFSSYPSGGGAGMGGMPGGMGGMHGGMGGMPGGFRSASSSPTYPEEETVQVNLPVSLEDLFVGKKKSFKIGRKGPHGASEKTQIDIQLKPGWKAGTKITYKNQGDYNPQTGRRKTLQFVIQEKSHPNFKRDGDDLIYTLPLSFKESLLGFSKTIQTIDGRTLPLSRVQPVQPSQTSTYPGQGMPTPKNPSQRGNLIVKYKVDYPISLNDAQKRAIDENF
notes: Sis1, essential yeast DNAJ (Hsp40) protein, with the J-domain mutation E53A; also called homologous to DNAJB6-E54A; LGMDD1 J-domain mutant; source: E. coli Lemo21(DE3), purified (Talon cobalt resin, TEV cleavage, second Talon pass)
binding result (Ssa1-WT): binds | binding result (full-length Rnq1): binds

B3: Sis1-E53K (natural protein, yeast, UniProt P25294 1-352, looked up)
chain: MVKETKLYDLLGVSPSANEQELKKGYRKAALKYHPDKPTGDTEKFKEISEAFKILNDPQKREIYDQYGLEAARSGGPSFGPGGPGGAGGAGGFPGGAGGFSGGHAFSNEDAFNIFSQFFGGSSPFGGADDSGFSFSSYPSGGGAGMGGMPGGMGGMHGGMGGMPGGFRSASSSPTYPEEETVQVNLPVSLEDLFVGKKKSFKIGRKGPHGASEKTQIDIQLKPGWKAGTKITYKNQGDYNPQTGRRKTLQFVIQEKSHPNFKRDGDDLIYTLPLSFKESLLGFSKTIQTIDGRTLPLSRVQPVQPSQTSTYPGQGMPTPKNPSQRGNLIVKYKVDYPISLNDAQKRAIDENF
notes: Sis1, essential yeast DNAJ (Hsp40) protein, with the J-domain mutation E53K; also called homologous to DNAJB6-E54K; LGMDD1 J-domain mutant; source: E. coli Lemo21(DE3), purified (Talon cobalt resin, TEV cleavage, second Talon pass)
binding result (Ssa1-WT): binds | binding result (full-length Rnq1): binds
